B1: Gamma-aminobutyric acid receptor-associated protein (Homo sapiens), O95166 (parent)
chain: MKFVYKEEHPFEKRRSEGEKIRKKYPDRVPVIVEKAPKARIGDLDKKKYLVPSDLTVGQFYFLIRKRIHLRAEDALFFFVNNVIPPTSATMGQLYQEHHEEDFFLYIAYSDESVYGL
partner: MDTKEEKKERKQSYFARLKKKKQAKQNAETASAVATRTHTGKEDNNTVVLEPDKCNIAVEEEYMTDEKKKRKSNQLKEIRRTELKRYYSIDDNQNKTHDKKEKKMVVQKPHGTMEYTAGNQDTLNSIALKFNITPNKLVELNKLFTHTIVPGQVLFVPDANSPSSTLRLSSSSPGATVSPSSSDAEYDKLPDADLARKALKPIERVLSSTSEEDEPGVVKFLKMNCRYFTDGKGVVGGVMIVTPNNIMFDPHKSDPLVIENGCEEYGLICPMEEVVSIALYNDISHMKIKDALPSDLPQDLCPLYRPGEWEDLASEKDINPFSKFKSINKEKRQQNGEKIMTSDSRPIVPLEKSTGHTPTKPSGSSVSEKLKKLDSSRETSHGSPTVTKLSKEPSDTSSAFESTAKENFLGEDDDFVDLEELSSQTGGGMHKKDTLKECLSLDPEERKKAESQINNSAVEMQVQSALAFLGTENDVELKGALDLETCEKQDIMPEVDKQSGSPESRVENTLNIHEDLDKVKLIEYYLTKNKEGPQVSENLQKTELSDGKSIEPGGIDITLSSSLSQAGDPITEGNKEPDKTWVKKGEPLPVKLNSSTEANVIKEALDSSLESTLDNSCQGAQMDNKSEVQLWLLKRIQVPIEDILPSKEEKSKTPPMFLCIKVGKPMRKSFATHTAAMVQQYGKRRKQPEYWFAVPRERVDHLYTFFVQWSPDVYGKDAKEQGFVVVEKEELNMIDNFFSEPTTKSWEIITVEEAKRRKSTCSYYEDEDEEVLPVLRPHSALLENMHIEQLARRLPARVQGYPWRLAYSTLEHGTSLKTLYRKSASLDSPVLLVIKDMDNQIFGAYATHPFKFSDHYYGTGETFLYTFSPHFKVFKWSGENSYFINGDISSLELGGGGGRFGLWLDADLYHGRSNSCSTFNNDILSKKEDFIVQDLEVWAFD
B2: Gamma-aminobutyric acid receptor-associated protein (Homo sapiens), O95166 (parent)
chain: B1 chain
partner: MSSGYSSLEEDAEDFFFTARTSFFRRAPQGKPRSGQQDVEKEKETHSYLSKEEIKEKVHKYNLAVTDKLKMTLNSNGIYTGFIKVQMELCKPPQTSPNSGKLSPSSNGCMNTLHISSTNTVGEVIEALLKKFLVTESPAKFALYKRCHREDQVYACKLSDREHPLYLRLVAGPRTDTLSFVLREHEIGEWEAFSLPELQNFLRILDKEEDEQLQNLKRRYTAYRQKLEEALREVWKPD
B3: Gamma-aminobutyric acid receptor-associated protein (Homo sapiens), O95166 (parent)
chain: B1 chain
partner: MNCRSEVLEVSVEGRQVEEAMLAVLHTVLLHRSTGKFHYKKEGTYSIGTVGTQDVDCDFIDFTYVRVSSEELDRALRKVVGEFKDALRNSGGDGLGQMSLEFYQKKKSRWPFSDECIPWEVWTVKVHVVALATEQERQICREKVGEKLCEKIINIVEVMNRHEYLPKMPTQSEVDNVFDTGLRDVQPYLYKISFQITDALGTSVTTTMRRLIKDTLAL
B4: Gamma-aminobutyric acid receptor-associated protein (Homo sapiens), O95166 (parent)
chain: B1 chain
partner: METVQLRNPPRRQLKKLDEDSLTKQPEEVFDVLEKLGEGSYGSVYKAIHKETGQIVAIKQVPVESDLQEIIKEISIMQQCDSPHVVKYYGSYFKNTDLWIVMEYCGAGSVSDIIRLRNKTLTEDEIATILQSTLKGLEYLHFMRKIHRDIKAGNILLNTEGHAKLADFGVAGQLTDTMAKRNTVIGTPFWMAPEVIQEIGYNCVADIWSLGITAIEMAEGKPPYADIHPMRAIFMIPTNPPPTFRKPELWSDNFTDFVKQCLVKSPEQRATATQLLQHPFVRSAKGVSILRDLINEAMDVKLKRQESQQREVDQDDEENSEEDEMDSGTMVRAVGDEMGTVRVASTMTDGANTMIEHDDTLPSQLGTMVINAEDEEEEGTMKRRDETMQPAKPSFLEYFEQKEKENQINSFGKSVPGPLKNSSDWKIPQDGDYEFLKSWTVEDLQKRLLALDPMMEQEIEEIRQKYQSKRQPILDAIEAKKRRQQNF
B5: Gamma-aminobutyric acid receptor-associated protein (Homo sapiens), O95166 (parent)
chain: B1 chain
partner: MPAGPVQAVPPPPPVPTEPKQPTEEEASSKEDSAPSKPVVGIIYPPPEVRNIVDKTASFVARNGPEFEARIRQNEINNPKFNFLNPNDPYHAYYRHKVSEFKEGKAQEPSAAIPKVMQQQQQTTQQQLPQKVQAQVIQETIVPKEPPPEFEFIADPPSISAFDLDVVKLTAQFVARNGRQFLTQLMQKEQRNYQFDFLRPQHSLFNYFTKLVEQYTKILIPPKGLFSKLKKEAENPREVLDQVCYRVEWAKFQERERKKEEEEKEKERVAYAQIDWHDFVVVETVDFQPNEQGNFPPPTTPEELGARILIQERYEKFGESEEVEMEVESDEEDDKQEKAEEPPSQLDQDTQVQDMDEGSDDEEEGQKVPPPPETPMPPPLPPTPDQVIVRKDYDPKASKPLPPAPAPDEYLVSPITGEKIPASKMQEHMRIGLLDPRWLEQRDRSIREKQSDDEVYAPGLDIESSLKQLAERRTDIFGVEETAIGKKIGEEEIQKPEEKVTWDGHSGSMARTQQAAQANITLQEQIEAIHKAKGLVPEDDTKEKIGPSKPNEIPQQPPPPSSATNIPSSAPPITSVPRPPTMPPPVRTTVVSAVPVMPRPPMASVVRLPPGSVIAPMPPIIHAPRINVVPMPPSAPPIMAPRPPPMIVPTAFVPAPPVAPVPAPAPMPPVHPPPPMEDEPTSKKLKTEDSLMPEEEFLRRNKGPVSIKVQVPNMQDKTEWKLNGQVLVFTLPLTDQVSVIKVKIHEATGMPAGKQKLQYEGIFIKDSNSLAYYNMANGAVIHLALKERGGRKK

Variants of: B1
Conditions: with ncoa7_human NCOA7, Q8NI08

Variant | effect of a mutation on the interaction
Y49A;L50A | decreasing interaction

Variants of: B2
Conditions: with rasf3_human RASSF3, Q86WH2

Variant | effect of a mutation on the interaction
Y49A;L50A | decreasing interaction

Variants of: B3
Conditions: with atga1_human ATG101, Q9BSB4

Variant | effect of a mutation on the interaction
R71A | increasing interaction
Y49A;L50A | increasing interaction

Variants of: B4
Conditions: with stk4_human STK4, Q13043

Variant | effect of a mutation on the interaction
R71A | increasing interaction

Variants of: B5
Conditions: with sf3a1_human SF3A1, Q15459

Variant | effect of a mutation on the interaction
Y49A;L50A | decreasing interaction
